Positions count from the first letter of the chain named. Names and notes keep the numbering of the source.

Series [1] concerns the molecule itself. Put plainly: crystal structure; WT hTREX1 with 22-nt Y-form dsDNA (1:1.3 protein:DNA), 0.05 M Li2SO4, 0.1 M Bis-Tris pH 6.5, 25% PEG-3350, 18 °C; spacegroup P 1 21 1, 3 copies of hTREX1-DNA dimer in the asymmetric unit.
Series [2] concerns the molecule itself. Kind of series: crystal structure; apo hTREX1 chimeras, hanging-drop vapor diffusion at 18 °C; spacegroup P 41 21 2, one hTREX1 dimer in the asymmetric unit.
A further series concerns the target T1, hTREX1 K160R (Homo sapiens, UniProt Q9NSU2 1-242, K160R).
T1 sequence: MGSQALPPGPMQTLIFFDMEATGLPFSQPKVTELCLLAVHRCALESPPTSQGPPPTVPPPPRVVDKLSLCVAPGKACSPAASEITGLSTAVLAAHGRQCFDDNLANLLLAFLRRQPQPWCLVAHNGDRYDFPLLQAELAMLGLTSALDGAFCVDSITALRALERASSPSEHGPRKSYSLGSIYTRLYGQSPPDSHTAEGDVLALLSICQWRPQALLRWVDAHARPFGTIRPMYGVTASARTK
Put plainly: thermal shift (thermofluor); 10 uM protein; 10 or 20 uM DNA; higher than WT; Tm about 63.2 C at 20 uM DNA (mean of source data, column order inferred); EMSA: 20 mM HEPES-NaOH pH 7.8, 75 mM KCl, 10 mM EDTA, 1 mM DTT, 4 C 30 min, 2% agarose; thermofluor: 20 mM Tris-HCl pH 7.5, 75 mM KCl, 1 mM TCEP, DNA preincubated at 4 C 30 min, 20-95 C ramp; crystals: 20 mM HEPES-KOH pH 7.5, 78 mM KCl, 1 mM TCEP over 0.05 M Li2SO4, …. The note with it: protein: recombinant; tags: none (His-SUMO2 removed by SENP2); chain copies: 2; blunt; self-complementary strand. Background: In EMSA bound probe runs differently from free probe, usually more slowly.

B1: human TREX1 (wildtype), N-terminal enzymatic domain, amino acids 1-242 (enzyme, UniProt Q9NSU2-3 1-242, looked up)
chain: T1 sequence with R160K
notes: human TREX1, C-terminal truncation, amino acids 1-242 of the 314-residue protein (catalytic domain 1-242, C-terminus 243-314); numbers count on: the 314-residue form; Crystallised with 22-nt Y-form dsDNA (2:2 complex); also called hTREX1; WT hTREX1; source: E. coli BL21-RIL DE3, purified (Ni-NTA, Heparin HP, Superdex S75)
As to B1, the binding result in series [1] is recorded as “binds”.

B2: hTREX1 Chi 5.1 (A5T/P8H/P10H), amino acids 1-242 (enzyme, human, UniProt Q9NSU2-3 1-242, looked up)
chain: T1 sequence with A5T, P8H, P10H, R160K
notes: human TREX1, amino acids 1-242 of the 314-residue protein, with three mouse-like mutations; numbers count on: the 314-residue form; also called human TREX1 Chi 5.1; source: E. coli BL21-RIL DE3, purified (Ni-NTA, Heparin HP, Superdex S75)
With B2, the binding result in series [2] is on record as “binds”.

B3: 30-bp dsDNA (dsDNA)
DNA 1: GCTCGAGTCATGACGCGTCATGACTCGAGC
DNA 2: B3 DNA 1
As to B3, in the series with hTREX1 K160R, the binding result is recorded as “binds”.

(Values after paper PMC9314330, “Structural basis of human TREX1 DNA degradation and autoimmune disease” (Nature Communications, 2022).)
